Laboratory results published in patent publication US20110245167A1 (UNIVERSITY OF TOLEDO, published 2011).

Target: Recombinant human Src expressed in Sf9 insect cells (purified recombinant full-length Src from Upstate … (human, UniProt P12931 2-536))
Experiment: cell-based or functional assay

B1: pNaKtide (HIV-Tat-NaKtide) (peptide)
peptide: not shown
IC50 of Src inhibition (in vitro kinase assay): ~5 nM
